# Experimental data published in the supplement of paper PMC12042874.
# ± gives the uncertainty stated by the source.
# Assay: amyloid nucleation score (Sup35N fusion, yeast selection) (log enrichment); library NNK2; higher = more nucleation; inactive = no reads after selection
# Method in brief: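 The nucleation score is the DiMSum log enrichment of output over input reads, centred on the mode score of non-aggregating sequences. Only sequences with 100 or more input reads were scored, using Illumina sequencing of input and output plasmid inserts. Psi-negative yeast expressing Sup35N fused to peptides of 20 random codons were induced 24 hours with 100 μM copper sulfate and grown 7 days at 30°C on medium lacking adenine and uracil.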
row,Substance,amyloid nucleation score
1,MTSENNWPNYTGLAPTPPAA,1.32 ± 0.18
2,NNLCQ,-0.1 ± 0.32
3,IWYLLFMVDLVKCHTMKTNR,0.686 ± 0.12
4,DSSLKLGNTETFIDRSMLCN,-0.407 ± 0.4
5,IARIRILCLL,0.234 ± 0.19
6,TDYQSVVDTVG,0.019 ± 0.32
7,IARRLTMGLTRMM,1.56 ± 0.18
8,DSCGLCRYGGEMFRKFKFIS,inactive
9,CVAWKR,0.554 ± 0.48
10,EGSNYYTMVV,inactive
11,WVTWLISCCYNRLEQGCLAF,0.097 ± 0.63
12,LRQYKRALAVGLDWFPSVLR,0.113 ± 0.8
13,DLKVDQSVWRSLDMNALVAN,1.27 ± 0.44
14,HNPLS,inactive
15,YAGFVFFRTL,inactive
16,FNLMLI,inactive
17,KAIDLRVPSMYYRPWVV,-0.58 ± 0.76
18,LVTLRKMDPSPRRVIFNVCN,0.935 ± 0.39
19,GRCYIISCPESWHKPMYVAI,0.142 ± 0.34
20,CTFLRNIGFLYWYVSPLNLG,inactive
21,YNMIYYQLNTMLVHDMIKYG,3.56 ± 0.073
22,NTNASDWRGAMLLSCMRFYS,-0.257 ± 0.42
23,SLRDARGRSYYRFNIISVML,5.591 ± 0.033
24,NCPSPLVWDCVLVVGDPVAC,0.217 ± 0.25
25,VIVGSLRCHFSLVAWVKC,0.651 ± 0.51

row,Substance,amyloid nucleation score
1,MDPYYRKICSCDVGVNYRFL,inactive
2,RAWETNFRVTTLDCNNYSSS,inactive
3,GDFSPYYCHCYIIMVCGMLG,inactive
4,GSKNFPRPIPDYVWVFTGAI,0.032 ± 0.43
5,AKHERSIMVDVMSGRCSTLS,1.07 ± 0.24
6,RNYHIQYIAVRVLIPASA,5 ± 0.068
7,RSLVLYSGRKVLS,-0.516 ± 0.27
8,CCFGVQVEGT,-0.461 ± 0.79
9,LFKEDRDRCSC,0.99 ± 0.49
10,ALILECRVRSRS,4.16 ± 0.12
11,LRRVSGRLDSIWSWCVRCNE,-1.02 ± 1.1
12,STSIPCSEHDFVCYHMVCGF,-0.652 ± 0.37
13,RIVRQSVYQELFYFGQRGSL,4.19 ± 0.072
14,MVNCDYGPLLS,inactive
15,TLLKHTSSTSIVYRRHALEI,1.35 ± 0.29
16,PIIFSLSTFSCNVYEIRSNG,3.57 ± 0.093
17,NIFRESEAERRALNKFYMSF,0.04 ± 0.76
18,APCNKESIKRARGWAVRWSW,3.12 ± 0.077
19,LERFSATYLKAWSGGVCVRV,-0.067 ± 0.65
20,TEEWFFCPRLTLKFLKEVHK,4.94 ± 0.092
21,GFTENKIRDVFGVFHFIVGD,0.479 ± 0.8
22,CFESHWCRYPLDGRLGHKEF,inactive
23,CFSHYHDSFLPGWYYSGNYV,-0.788 ± 0.4
24,AKYSSLKNMLYGFRRDANMG,0.296 ± 0.65
25,LIAQMM,-1.22 ± 0.48

row,Substance,amyloid nucleation score
1,NCHFTCMPAACGETVKTY,0.597 ± 0.45
2,IFNLSRAQTVINL,5.34 ± 0.063
3,DFAGSKDDWTSQMMGVLDGL,-0.689 ± 0.44
4,KCIYDFHHRKSSVRDSLSFH,-1.6 ± 0.75
5,DKYAGCNSDDINWMKDRVSG,0.029 ± 0.5
6,PNPRPVSICNRLYPF,-0.246 ± 0.38
7,ILRTDMMINMDLLFGNVGNL,3.38 ± 0.089
8,RLKELRQDIPVMPNRQL,1.51 ± 0.3
9,YKVYPWLFIYLLLLDRAD,-1.45 ± 0.73
10,YVSMLTNLTDLTSM,0.572 ± 0.33
11,GGQDDVIGLRKSVMAENRVH,0.537 ± 0.42
12,WTWVLMNIL,-1.76 ± 0.64
13,ITCDRYITDVIDNEA,inactive
14,VDYVGSYTVSEDREENLAKP,3.75 ± 0.096
15,NGYRNFIRGHDSRFRGVTTT,4.66 ± 0.05
16,IMTDPRSSLSLWCLNLSVNG,4.88 ± 0.082
17,AMFSEVYASHQVVPYPLSLS,0.746 ± 0.62
18,VDMPTSQFVTSTTLGTLVTM,2.32 ± 0.12
19,QMAINAGRRRRHAEYGLRNS,0.684 ± 0.57
20,VFEVDLFWRSKFNSCLLPFR,-0.95 ± 0.36
21,VDGVKTSIKGRNFI,-0.259 ± 0.45
22,YIWNCDSDSIVPLLL,inactive
23,MVVYRVPMAQLLPS,inactive
24,MYVDLKLSYNHSPATLW,5.22 ± 0.061
25,RDSVCMTRLDMGLDCEWVFG,1.57 ± 0.36

row,Substance,amyloid nucleation score
1,SISVAVRSCQVTVPGKCDCA,7.756 ± 0.035
2,LVRHFIHGSTA,-1.23 ± 0.49
3,SHSYFSYTFQILLCEAVRGG,-0.124 ± 0.76
4,YYPGL,-1.45 ± 1.1
5,GFRIGTLLGTMINSMNCSFI,2.88 ± 0.12
6,NLARYLLRKELARYFMSQ,-0.578 ± 0.41
7,WTTRFSCITTFLRQCPYM,0.148 ± 0.79
8,FLGDWKTCKVTGACKLCYGG,-0.018 ± 0.42
9,NLFLFVRGLGRGWSWWWEVR,0.415 ± 0.8
10,VKEYYSTGSTWRLYWMWSDW,0.282 ± 0.36
11,ACFNLEKIVINYFWFS,6.999 ± 0.039
12,YNSMSVSILNVYYDQPWSLS,8.768 ± 0.049
13,LTLLHFRREDTHCSGTGTPC,1 ± 0.2
14,VVRQTVSDCVQASTRSQLLK,0.522 ± 0.35
15,FSECLKTTENMKITQKGTPV,0.459 ± 0.54
16,PGSTRAFIMAVWGAPTEWER,2.86 ± 0.16
17,FLSGVFIMRFHLNY,inactive
18,VCRVFIKLYI,1.03 ± 0.21
19,ILLNGRSFLRS,0.174 ± 1
20,CRSWTHKSHIPVKLSNDTMS,-0.106 ± 0.63
21,ATGMIPVNLQATIWEVHEVG,2.68 ± 0.21
22,GENSVLRSGNFKYKAWFCGG,-0.342 ± 1
23,LYGHSVNMVV,-0.224 ± 0.39
24,TSQTCLEVSRSCCVGMRKSK,0.192 ± 1
25,MIERMSNRGMACLFVETRSG,-0.149 ± 0.76

row,Substance,amyloid nucleation score
1,NIVVPRRL,2.53 ± 0.13
2,SDFVEKLLWFSY,0.039 ± 0.77
3,HNYVINESFFFLVVVYVDAG,7.6 ± 0.037
4,PSTYWRMILKFRVCEIVHGT,0.231 ± 0.21
5,VCWTNSWVCNSGVLSGVGAA,1.41 ± 0.18
6,YFWLVFLKKHRQGLEGKGGW,0.004 ± 0.62
7,VYHDHLKLWSKGTSRVAWAL,2.34 ± 0.16
8,HRFIILNIVAFE,0.59 ± 0.28
9,VVMVVCMV,0.36 ± 0.62
10,FNYGCFVLDSDHVAGKGILI,inactive
11,STNIRSLMLLFCNNIEQASV,7.816 ± 0.038
12,SHYCGLVCLELEIWLYP,1.31 ± 0.18
13,MTALATRRCHPLYISA,-0.661 ± 0.42
14,FSMPTYSSALAFM,-0.352 ± 0.28
15,ALLWWRVKLSAHYRYGLNYW,0.27 ± 0.4
16,FNRVLVPRIKNTWILYCYFI,inactive
17,FHPVFGMFWRTSNERSGLFQ,-1.03 ± 0.48
18,RLTYNKYLTWNCYVFLSHAL,-0.464 ± 1.1
19,RNYRLRMDGDCGLFFCCGD,9.348 ± 0.051
20,LYQWSGLIKSVLNSGCGKVE,0.315 ± 0.54
21,NSYIRHSFLQTRFISTNV,-0.306 ± 0.36
22,DSWFEQCVVFWLKTNCPQQE,-0.069 ± 0.25
23,VFYNAASDFLAILQEFTSSH,inactive
24,RRLSNRRWLIFCQWSFHYGV,0.242 ± 0.61
25,DMVCRY,-0.272 ± 0.36

row,Substance,amyloid nucleation score
1,RLCWLEGVIVYRIFGGKLGV,-1.33 ± 0.44
2,KISVWGYRFLDRH,0.072 ± 0.21
3,NHIFYRMCSNLTAKYIRLTS,inactive
4,MKRVGKFVGLGGRHVVHSRV,0.434 ± 0.33
5,FFNLNQLMFKELSMRLGHRY,0.066 ± 0.74
6,FVYTLAYNRRWYSRAVSFES,-0.461 ± 0.79
7,WSKLYTFIFLASNKLLTWPC,inactive
8,RPVDPWLCRKWLVV,inactive
9,YDYNCRDVWIWHA,-0.184 ± 0.63
10,DHADWNAYHISTEV,3.25 ± 0.05
11,IWCSTGTFWLGGRLITLWRW,1.02 ± 0.28
12,NRCWGDHEV,0.435 ± 0.39
13,HTWDLYYAIYSA,-1.19 ± 0.36
14,YLPTGELIHHYKTSIVLDSA,-0.458 ± 0.41
15,GLFLRSTP,-0.402 ± 0.42
16,LNFFNDR,inactive
17,WNINRIPFKVRWRAIFHMYH,-1.25 ± 0.37
18,VGGFRGRVTSHSPMRMCIQR,-0.114 ± 1
19,DWRLARLSSVRFLNGIDCDF,0.015 ± 0.56
20,THVDFLWIVNLGGSHI,7.519 ± 0.041
21,KFIEHWYVFGYIFLRFYKFQ,-0.623 ± 1
22,RGYFPFYNR,-0.907 ± 0.65
23,KLDWSNRLCSLNFECSCQLL,3.78 ± 0.094
24,RVSTEVFCSLLVGTHLGRGP,4.24 ± 0.13
25,INVFSYSL,2.58 ± 0.089

row,Substance,amyloid nucleation score
1,ASLSMSLFFALSVA,inactive
2,ILIVVMCFHSNNKSRDNRIY,-1.46 ± 1
3,CIMMYVT,0.259 ± 0.17
4,RLSENFLRWSDVTIQSRLFG,2.49 ± 0.15
5,LFYSTPDRCKRVDVSGISLM,-0.325 ± 0.76
6,DTRVSFRFMVTYLIMVYRFL,0.774 ± 0.22
7,RRISLLFTYYVRQSLSCLIV,4.94 ± 0.086
8,SHSSMVLRLVRVWCVCRG,0.342 ± 0.4
9,FCKHFYVLREHIKWADSFLM,inactive
10,FWKNYQIMMRMCDKHVIEDV,2.95 ± 0.11
11,RLSPPRNWLVRRRRIFNGLL,-0.757 ± 0.76
12,ASGQWGPD,-0.67 ± 0.76
13,DLAFFMLHYLHIRRCKDYPR,inactive
14,HSVFNSMRRENLVNNNTLNG,inactive
15,LSYLHG,-0.913 ± 0.63
16,LFGSKVHSSWRPSCLFTSAV,0.377 ± 0.33
17,VWNYISLNEAM,-0.946 ± 0.55
18,DSTFKYYRTYLKERR,-0.357 ± 0.41
19,AAKTNCDC,-0.01 ± 1
